Assay [1] concerns the target T1, PTP1B under reducing condition (Homo sapiens, UniProt P18031).
T1 construct: made in house; host or cells: E. coli BL21 (pET19b)
T1 sequence (P18031 3-277 limits assumed): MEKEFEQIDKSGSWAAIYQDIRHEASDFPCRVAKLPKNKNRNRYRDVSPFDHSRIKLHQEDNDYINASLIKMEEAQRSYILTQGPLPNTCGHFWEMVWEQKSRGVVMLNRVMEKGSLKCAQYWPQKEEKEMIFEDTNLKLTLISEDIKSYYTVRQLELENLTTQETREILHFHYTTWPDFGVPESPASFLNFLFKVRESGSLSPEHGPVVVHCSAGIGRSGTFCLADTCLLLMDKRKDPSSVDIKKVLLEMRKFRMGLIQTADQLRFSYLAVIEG
The assay can be described thus: In vitro binding assay, purified recombinant PTP1B (37 kDa) and purified scFv, Ni-NTA pull down, reducing condition. The conditions noted are these: with 2 mM TCEP; FIG. 9. The method, then: (§1) They established conditions in which PTP1B is reversibly oxidized by H2O2 in solution (FIG. 8). An artificial protein substrate RCML, in which tyrosine was phosphorylated with ^32P using recombinant GST-FER kinase was used in this assay to measure the phosphatase activity. Recombinant PTP (37 kDa) was incubated with increasing concentration (50 μM to 100 mM) of H2O2. A quick buffer exchange was done to remove the H2O2 and reducing agent (TCEP) was added to reactivate the enzyme.
(§2) In the in vitro binding assay, purified PTP was reversibly oxidized with […] followed by a quick buffer exchange to remove H2O2 (FIG. 8). Purified scFv was incubated in molar excess with PTP1B-OX or with PTP under reducing condition (with 2 mM TCEP) in binding buffer (20 mM HEPES, pH 7.4, 300 mM NaCl, 0.05% BSA, 0.05% Tween-20 and 10 mM imidazole) for 2 hours at 4° C. Ni-NTA agarose was added and incubated for one hour at 4° C. Protein complex bound to Ni-NTA agarose beads was pulled down and washed (three times, 5 minutes each, at 4° C.) with binding buffer containing 20 mM imidazole to reduce non-specific binding to the beads. The protein complex was eluted from the Ni-NTA agarose beads with 500 mM imidazole (in binding buffer, pH 7.4) for 15 minutes at 4° C. with gentle shaking. The complex was separated by SDS-PAGE and PTP1B was detected with anti-PTP1B antibody (FG6) and scFv was detected with anti-HA antibody [anti-HA (3F10)-HRP, Roche] by immunoblotting. Eight different scFvs (scFvs 20, 21, 24, 28, 45, 48, 57, and 105), expressed and purified from bacterial cultures were tested by this in vitro binding experiment.

Assay [2] concerns the target T2, PTP1B-OX (Homo sapiens, UniProt P18031).
T2 construct: made in house; host or cells: E. coli BL21 (pET19b)
T2 sequence (P18031 3-277): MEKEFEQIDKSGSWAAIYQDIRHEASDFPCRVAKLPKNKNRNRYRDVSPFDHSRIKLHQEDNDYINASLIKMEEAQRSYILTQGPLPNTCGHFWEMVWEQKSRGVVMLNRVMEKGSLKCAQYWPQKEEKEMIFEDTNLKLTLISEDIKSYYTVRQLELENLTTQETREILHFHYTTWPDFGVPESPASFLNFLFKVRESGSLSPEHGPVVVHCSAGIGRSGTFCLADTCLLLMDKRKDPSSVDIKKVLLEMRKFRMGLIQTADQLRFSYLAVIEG
The assay is described as follows: In vitro binding assay, purified recombinant PTP1B (37 kDa) and purified scFv, Ni-NTA pull down. The conditions noted are these: purified proteins, scFv in molar excess, 2 hours at 4° C.; FIG. 9. The method, then:
as §1, §2

For assay [3], the target named is T3, endogenous PTP1B-OX (Homo sapiens, UniProt P18031).
T3 construct: endogenous in cells; host or cells: 293T cells (transfected only with the scFv intrabody)
T3 sequence (P18031 1-435): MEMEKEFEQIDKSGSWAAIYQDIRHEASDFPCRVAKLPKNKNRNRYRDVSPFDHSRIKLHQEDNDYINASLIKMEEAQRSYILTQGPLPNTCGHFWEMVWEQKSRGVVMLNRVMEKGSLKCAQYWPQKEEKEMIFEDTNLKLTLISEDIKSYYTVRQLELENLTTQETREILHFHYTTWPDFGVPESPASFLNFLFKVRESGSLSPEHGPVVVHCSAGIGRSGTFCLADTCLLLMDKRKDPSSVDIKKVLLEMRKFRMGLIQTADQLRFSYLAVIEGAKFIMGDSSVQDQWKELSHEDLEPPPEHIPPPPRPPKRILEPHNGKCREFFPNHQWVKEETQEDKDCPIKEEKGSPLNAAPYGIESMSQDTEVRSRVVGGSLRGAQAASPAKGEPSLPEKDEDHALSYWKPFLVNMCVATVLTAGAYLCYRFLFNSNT
The assay is described as follows: Intrabody interaction in 293T cells treated with H2O2 (Ni-NTA pull down / anti-PTP1B immunoprecipitation). The conditions noted are these: 1 mM H2O2 5 minutes, FIGS. 11, 12. The class given is cell-based. The method, then: One of the positive candidate scFvs (scFv45) was cloned in pcDNA3.2/V5-GW/D-TOPO expression vector and transiently expressed in mammalian cells as stable intracellular antibody (aka intrabody) (FIG. 10). To detect PTP1B-OX and scFv45 interaction in mammalian cells, scFv45 was overexpressed in 293T cells as described herein (See Example 4) and 48 hours post transfection the cells were serum-starved for 16 hours in growth medium (DMEM, low glucose) without serum (FBS), then incubated with 1 mM H2O2 (in growth medium without serum) for 5 minutes at 37° C. or treated with 20 mM NAC (in growth medium without serum) for 1 hour at 37° C. Cells treated with H2O2 were washed twice with cold (4° C.) PBS and lysed in lysis buffer (25 mM HEPES, pH 7.4, 150 mM NaCl, 0.25% Deoxychloate, 1% TritonX-100, 25 mM NaF, 10 mM MgCl2, 1 mM EDTA, 10% Glycerol, 0.5 mM PMSF, 10 mM Benzamidine, protease inhibitor cocktail). Cells treated with NAC were lysed with lysis buffer containing 2 mM TCEP to ensure a post-lysis reducing environment. Interaction between PTP1B and intrabody45 were tested by pulling down the protein complex from 1 mg of total cell lysate with Ni-NTA agarose or by immunoprecipitating PTP with anti-PTP1B (FG6). For the pull down experiment, Ni-NTA agarose beads were incubated with the lysates (both oxidized and reduced) at 4° C. Protein complex bound to the Ni-NTA agarose beads was pulled down and washed three times; first with lysis buffer containing 20 mM imidazole followed by two more washes with wash buffer (PBS, pH 7.4, 20 mM imidazole, 0.05% BSA, 0.05% Tween-20 and protease inhibitors). Applicant used 20 mM imidazole in the wash buffer to reduce the non-specific binding of proteins with the Ni-NTA agarose beads. The complex was eluted with wash buffer containing 500 mM imidazole with gentle shaking at 4° C. and the eluate was mixed with SDS sample buffer with DTT. For the immunoprecipitation experiments, 1 mg of total cell lystates (both oxidized and reduced) was incubated with anti-PTP1B antibody (FG6) at 4° C. The interacting protein complex was immunoprecipitated after incubating the lysate-antibody mixture with protein A/G Sepharose at 4° C. After immunoprecipitation, Sepharose beads were washed three times; first with lysis buffer followed by two more washes with wash buffer (PBS, pH 7.4, 0.05% BSA, 0.05% Tween-20 and protease inhibitors). The Sepharose beads were then heated at 90° C. in 2×SDS sample buffer with DTT. Proteins from the pulled down or immunoprecipitated complex were separated by SDS-PAGE. PTP was detected with anti-PTP1B antibody (FG6) and the intrabodies were detected with anti-HA (3F10)-HRP antibody [anti-HA (3F10)-HRP, Roche] by immunoblotting.
In the initial in vitro phosphatase screening assay using reversibly oxidized (with H2O2) recombinant PTP1B, Applicant found four different PTP1B-OX specific scFvs (scFv45, scFv57, scFv64 and scFv106) from the initial pool of 12 different scFvs. […] Applicant has also shown that scFv45, expressed as an intrabody in mammalian cells, can bind to endogenous PTP1B-OX but not endogenous PTP under reducing conditions. Further assessment was carried out to identify additional PTP1B-OX-specific intrabodies. Additional scFvs have been subcloned in pcDNA3.2/V5-GW/D-TOPO mammalian expression vector (FIG. 10) from their respective phagemid constructs. After transient overexpression of these scFvs as intrabodies in 293T cells, the interaction between endogenous PTP1B and these intrabodies in both H2O2-treated cells and cells was observed under reducing condition (treated with NAC and lysed with lysis buffer containing TCEP). […] All can be used in the methods and compositions described herein. Additional scFvs, such as some or all of the 137 selected individual scFvs from the library, can be similarly tested by in vitro screening and/or by binding assay in mammalian cells.

B1: scFv105: scFv, SEQ ID NO: 132 (protein)
scFv: MKKTAIAIAVALAGFATVAQAALTQPSSVSANPGEAVKITCSGSSGSYGWYQQKSPGSAPVTVIYYNDKRPSDIPSRFSGSTSGSTSTLTITGVQAEDEAVYFCGGYDSNYLGIFGAGTTLTVLGQSSRSSAVTLDESGGGLQTPRGALSLVCKASGFTFSSYSMAWVRQAPGKGLEFVAGIQNDGSITDYGSAVDGRATISRDDGQSTVRLQLNNLRTEDTATYYCAKTTVADGVIGAYGIDAWGHGTEVIVSSTSGQAGQHHHHHHGAYPYDVPDYAS
Take B1: the “binding to PTP1B under reducing condition in vitro” value in assay [1] is “no significant binding”. The “binding to PTP1B-OX in vitro” value in assay [2] is “no significant binding”.

B2: scFv61: scFv, SEQ ID NO: 94 and 164 (protein)
scFv: MKKTAIAIAVALAGFATVAQAALTQPSSVSANPGETVKITCSGGGSYAGSYYYGWYQQKAPGSAPVTLIYDNTNRPSNIPSRFSGSLSGSTGTLTITGVRAEDEAVYYCGSFDSSTDGGYAAIFGAGTTLTVLGQSSRSSAVTLDESGGGLQTPGGGLSLVCKASEFTFSSYAMEWVRQAPGKGLEWVAYINSDGSSTWYAPAVKGRATISRDNGQSTVRLQLNSLRAEDTATYYCTRGSGGENIDTWGHGTEVIVSSTSGQAGQHHHHHHGAYPYDVPDYAS
Regarding B2, the “binding of intrabody to endogenous PTP1B-OX” value (from here on “binding of intrabody”) in assay [3] is “bound weakly to PTP1B-OX”.

B3: scFv62: scFv, SEQ ID NO: 95 and 165 (protein)
scFv: MKKTAIAIAVALAGFATVAQAALTQPSSVSANPGGTVKITCSGSSSAYGYGWYQQKSPGSAPVTVIYNNNKRPSNIPSRFSGSKSGSTGTLTITGVQAEDEAVYFCGSEDSSTDAIFGAGTTLTVLGQSSRSSAVTLDESGGGLQTPGGALSLVCKASGFTFSSYDMGWVRQAPGKGLEYVAGITNDGRYASYGSAVDGRATISRDNGQSTVRLQLNNLRAEDTGTYYCARDDGSGWTGNTIDTWGHGTEVIVSSTSGQAGQHHHHHHGAYPYDVPDYAS
As for B3, the “binding of intrabody” value in assay [3] is listed as “bound weakly to PTP1B-OX”.

B4: scFv28: scFv, truncated sequence, SEQ ID NO: 61 (protein)
scFv: MKKTAIAIAVALAGFATVAQAAVIYSNDERPSDIPSRFSGSTSGSTSTLTITGVQADDEAVYFCGSADSSTYAGIFGAGTTLTVLGQSSRSSAVTLDESGGGLQTPGGALSLVCKASGFTFSSFNMFWVRQAPGRGLEFVAGITSSGGSTYYGTAVKGRATISRDNGQSTVRMQLNNLRAEDTGTYFCARGAYDYYFYWNYAGTIDAWGHGTEVIVSSTSGQAGQHHHHHHGAYPYDVPDYAS
On to B4, for which the “binding to PTP1B under reducing condition in vitro” value in assay [1] is listed as “no significant binding”. Moreover, in assay [2], the “binding to PTP1B-OX in vitro” value is on record as “no significant binding”.

B5: scFv21: scFv, SEQ ID NO: 54 (protein)
scFv: MKKTAIAIAVALAGFATVAQAALTQPSSVSANPGGTVKITCSGSSGSYYGWYQQKSPGSAPVTVIYDNDKRPSDVPSRFSGSKSGPTATLTITGVQAEDEAVYFCGSRDNSYVGIFGAGTTLTVLGQSSRSSAVTLDESGGGLQTPGGALSLVCKASGFTFSSYDMFWVRQAPGKGLEFVAQINSAGSYTNYGSAVKGRATISRDDGQSTVRLQLNNLRAEDTGIYFCAKSASGYYYSGSDAGDIDAWGHGTEVIVSSTSGQAGQHHHHHHGAYPYDVPDYAS
As to B5, the “binding to PTP1B under reducing condition in vitro” value in assay [1] is reported as “no significant binding”. In assay [2], the “binding to PTP1B-OX in vitro” value is reported as “no significant binding”.

B6: scFv118: scFv, SEQ ID NO: 142 and 166 (protein)
scFv: MKKTAIAIAVALAGFATVAQAALTQPSSVSANLGGTVEITCSGGSGSYGWYQQKSPGGAPVTVIYYNDKRPSDIPSRFSGSKSGSTATLTITGVQVEDEAVYYCGSYDSSYVGIFGVGTTLTVLGQSSRSSAVTLDESGGGLQTPRGALSLVCKASGFTFSSYSMAWVRQAPGKGLEFVAGIQNDGSITDYGSAVDGRATISRDDGQSTVRLQLNNLRTEDTATYYCAKTTVADGVIGAYGIDAWGHGTEVIVSSTSGQAGQHHHHHHGAYPYDVPDYAS
In the case of B6, the “binding of intrabody” value in assay [3] is “bound weakly to PTP1B-OX”.

B7: scFv24: scFv, SEQ ID NO: 57 (protein)
scFv: MKKTAIAIAVALAGFATVAQAAVSASPGDTVKITCSGGNSSYGYGWYQQKSPGSAPVSVIYYNDERPSDIPSRFSGSASGSTATLTITGVQADDEAVYYCGNADSSTYAGIFGAGTTLTVLGQSSRSSAVTLDESGGGLQTPGGGLSLVCKASGFDFSTNAMGWVRQAPGKGLEWVAGISGSGSSTWYATAVKGRATISRDNGQSTVRLQLNNLRAEDTGTYYCTKYVGDYYWYIDAGSIDAWGHGTEVIVSSTSGQAGQHHHHHHGAYPYDVPDYAS
B7: in assay [1], the “binding to PTP1B under reducing condition in vitro” value was “no significant binding”. Also, the “binding to PTP1B-OX in vitro” value in assay [2] is “no significant binding”.

These data come from US9074002B2, “PTP1B inhibitors” (Cold Spring Harbor Laboratory, priority 2009, dated 2015).
